± gives the standard deviation.
Test: protein stability index of a GFP-peptide fusion (GPS, HEK-293T) (PSI 1-6); higher = more stable
Settings: c terminus: a fixed tail appended
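Note: 24-mer peptide tiles fused after GFP, lentivirally expressed, FACS-sorted into six equal bins by GFP/DsRed ratio, decoded by Illumina sequencing, PSI is the read-weighted mean bin number.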

Sequence	protein stability index (treatment: DMSO)	protein stability index (treatment: MLN4924 1 uM, 8 h)
PSRAKPPTEGAGSPAKASQASKLR [FBF1]	5.16 ± 0.28	5.2 ± 0.2
SVSLQINCQSVAQMNLLQKYSLLK [DLC1]	2.2 ± 0.12	2.13 ± 0.22
GNLQLDCLAQGWKQYQQRAFGWFR [RTP4]	2.3 ± 0.5	2.24 ± 0.23
GILRRILRTLRDFPAEERARVLDR [ANKRD9]	2.39 ± 0.28	2.47 ± 0.65
KAFWKEDNALWERDRNLLQEDKAL [CCDC70]	4.16 ± 0.081	4.24 ± 0.18
SQRAMLLQGTESLNRATQSIERSH [VTI1B]	4.27 ± 0.13	4.35 ± 0.21
LVFPSSSSSSSSQAPGQPPGNQAE [ZBTB22]	5.06 ± 0.2	4.71 ± 0.067
RALDRLQEVPHEGPMCDLLWSDPD [PPP2CA]	4.42 ± 0.34	4.66 ± 0.17
EFARKGSCFLINTADRIIRVYDGR [RBBP5]	2.23 ± 0.67	2.24 ± 0.26
RENSKPRAILKPRKVCVGGKRRKD [PPP2R2B]	4.73 ± 0.35	4.89 ± 0.34
TVDIQNPDITSSRYRGLPAPGPSP [WAS]	4.49 ± 0.24	4.7 ± 0.18
EFQPAKCTDKENALKLFPVQPCSA [FAM189A2]	3.97 ± 0.17	4.03 ± 0.51
SGYALAEDGKRCVAVDYCASENHG [MATN2]	4.28 ± 0.64	4.36 ± 0.21
FPRLNRNKYMVTDGAAYIGNFDWV [PLD5]	2.32 ± 0.89	2.32 ± 0.23
DLKARIDQNTVVTRQLSEENANLQ [MTUS2]	4.83 ± 0.14	4.93 ± 0.083
LNQQVVSSSEQLQCCQTEIIELRR [KRT36]	4.29 ± 0.22	4.04 ± 0.27
SKAAAGKMNLYESFAQATQLGDLH [INTS3]	3.63 ± 0.25	3.58 ± 0.23
TQGQEKMMMMGPKEEEQSCEYETR [ZNF232]	5.42 ± 0.38	5.59 ± 0.16
MQEKNPVHVIGVEEPSVGASMLFD [ZNF8]	4.41 ± 0.094	4.34 ± 0.2
CVQCGKSYSQSSNLFRHQRRHNAE [ZNF24]	4 ± 0.16	4.42 ± 0.42
TTLDEFPLTRLGQLKACTNFDDIL [KCNG1]	2.99 ± 0.26	2.92 ± 0.22
HYANLNGLYGSTVDHQGVSWYHWK [TNXB]	2.5 ± 0.14	2.8 ± 0.66
PKKPIGGNIIAHASTTRLYLRKGR [RAD51]	3.79 ± 0.29	3.74 ± 0.17

Sequence	protein stability index (treatment: DMSO)	protein stability index (treatment: MLN4924 1 uM, 8 h)
VMVRWNKSLEWSPWNCILLTKDEA [IQUB]	2.57 ± 1	2.25 ± 0.35
HGNSGHPLVLSYIDLSAWCYYCQA [HDAC6]	2.73 ± 0.55	3.14 ± 0.58
INTLITSGADTAKCGIHSMFPLHL [ANKRD44]	1.8 ± 0.21	2.64 ± 0.84
EVTDKEQEFAARAAKQLEYQQLED [EPB41L3]	5.65 ± 0.27	5.62 ± 0.33
EEEEDDLSELPPLEDMGQPPAEEA [FKBP8]	5.63 ± 0.2	5.5 ± 0.38
GPVGTDFKPLNSTPATTTEPPKPT [ZNF207]	5.24 ± 0.21	5.19 ± 0.23
KTEQQRRREKAVHRLRVQQAALRA [NOP53]	3.98 ± 0.42	4.13 ± 0.18
VAARTPAVEGLTEAEEEELRAELT [TPD52L2]	5.56 ± 0.23	5.26 ± 0.26
INYLGAESLRPLVQTPPGGSEVVP [IKZF1]	4.07 ± 0.2	3.88 ± 0.28
PKDIYSSFGFPRTVKHIDAALSEE [MMP1]	3.9 ± 0.29	4.04 ± 0.23
VQKDHENYMKILLKVGGILVMPIE [PCMTD1]	2.88 ± 0.67	2.16 ± 0.48
HLFAGAEVILLVVMAYDRYMAICK [OR4A15]	2.67 ± 0.29	3.02 ± 0.68
ATYLRCQLLLIKALQEKLWNVAAP [INTS4]	3.16 ± 0.3	2.9 ± 0.39
LARKIASRNEFDRTIAETEAAYLK [SSNA1]	3.57 ± 0.23	3.74 ± 0.3
VVDRIQSSGKNVTLLVCGKKAYDY [PDZK1]	2.42 ± 0.5	2.54 ± 0.31
YSNTKENGINGELTSADRETAEEV [MAP2]	5.47 ± 0.13	5.44 ± 0.24
RPATAADCSDILRLIKELAKYEYM [SAT1]	2.06 ± 0.14	2.48 ± 0.18
YKPEQPLVRLRGGAYIGEGRVEVL [LOXL2]	3.12 ± 0.16	2.97 ± 0.47
PPAALESSDSANTTIEDEDAKARK [CAMK2B]	5.65 ± 0.15	5.7 ± 0.13
RTSSGNVWVTHEEMETLETSTKTD [PPFIA4]	5.24 ± 0.35	4.99 ± 0.06
ELLCCTNVSTKEGIHLALVELLKN [INTS4]	2.19 ± 0.74	2.4 ± 0.41
YKSVLQAVQKTDEGHPFKAYLELE [RTN1]	3.43 ± 0.12	3.54 ± 0.21
AAASAKDIYYNNMEEVCGGEKPYL [ATL3]	4.21 ± 0.25	4.01 ± 0.069

Sequence	protein stability index (treatment: DMSO)	protein stability index (treatment: MLN4924 1 uM, 8 h)
VDNIDMIDGDGDDMERFMEEMREL [BEX5]	5.27 ± 0.41	5.26 ± 0.21
SSNYFSPRESTDFSSSSQEAFAAS [ZBTB22]	4.41 ± 0.17	4.41 ± 0.15
LAPNFRWAIPNRQINDGMGGDGDD [BEX3]	4.77 ± 0.22	4.6 ± 0.26
SFRQGMHLTRHQRTHTGEKPYKCT [ZNF263]	3.57 ± 0.65	3.7 ± 0.49
RLIEVEDMMVMGRKPDPMCVFTYV [SMTNL2]	2.38 ± 0.37	2.59 ± 0.41
QRIALRLGNGNDKKEMNKSDLNTN [KMT2E]	4.78 ± 0.12	4.47 ± 0.28
LKKGESECQYYIDKLEYLDEKQRD [NET1]	4.55 ± 0.15	4.5 ± 0.32
VRMSADAMLKALLGSKHKVCMDLR [TNNI2]	2.25 ± 0.45	2.1 ± 0.3
AQVLMLGQILELPWKEETFLVLQS [FANCE]	2.47 ± 0.33	2.65 ± 0.67
NQNNYRLLSCGKILTGCKNMLFQQ [ACSBG2]	2.9 ± 1.2	2.3 ± 0.69
CFQSCLCCCCYQSKSLMTSVPMNG [EDNRA]	2.31 ± 0.53	2.41 ± 0.18
LTSQNIEIKLVSDVTADSKVLEAL [PLD5]	3.13 ± 0.31	3.18 ± 0.43
KRKSEVERAVKRMRHLSTGTMTGL [MATN2]	3.31 ± 0.088	3.12 ± 0.65
CMVGYDMGATRCDFTLSKTNMARI [CPXM2]	2.24 ± 0.6	2.1 ± 0.22
SYKIEEISPSTLKNSLFPSPISSI [KCNK9]	2.6 ± 0.21	2.7 ± 0.33
ICARACNATLTQYQLLATHVPTVW [RHOBTB2]	2.67 ± 0.13	2.41 ± 0.4
FSSYNKQDNNCHFDAALVSFINFF [SLC6A17]	2.81 ± 0.39	2.64 ± 0.41
VAFGIEADDESLLRTSNGQPVKTA [DNAAF3]	4.47 ± 0.23	4.52 ± 0.16
GQALLTHLYQSSARRYAGPLHHQT [ELAVL3]	2.4 ± 0.14	2.71 ± 0.097
SHSNITGIVEVILGETKAYVFFEK [TRIB1]	2.41 ± 1	1.9 ± 0.58
PLTSTQGLEHAAAGGSSGTTARER [FBF1]	5.36 ± 0.24	5.33 ± 0.3
QGMEVDLVTGLAIEEACYAQTIPT [AUH]	3.73 ± 0.21	3.53 ± 0.2
TTEVNAWLVHRDPEGSVSGSQPNS [NFE2L1]	4.33 ± 0.17	4.64 ± 0.35

Sequence	protein stability index (treatment: DMSO)	protein stability index (treatment: MLN4924 1 uM, 8 h)
VTHREGAPPLPGAESFPGSQVMGS [PLEKHN1]	4.63 ± 0.14	4.51 ± 0.11
LFGTIAYLPPERIREKSRLFDTKH [RIPK4]	2.57 ± 0.52	2.57 ± 0.27
SVGCIFAEMFRRKPLFCGNSEADQ [CDK4]	2.37 ± 0.2	2.58 ± 0.23
PPVRPAGYLLSFHTPGGQNQEILL [TNXB]	2.38 ± 0.29	2.38 ± 0.31
SSDESPGSKCSPEDLATAYNNRGQ [TTC32]	5.28 ± 0.18	5.44 ± 0.12
SQAPVNKPKKKKEKKEKEKKKKDK [BRD3]	5.32 ± 0.32	5.3 ± 0.32
SVPLAYFLLSQQTDLPECEQSSAR [TCF25]	3.07 ± 0.25	2.89 ± 0.5
MAAGQNGHEEWVGSAYLFVESSLD [TRADD]	2.05 ± 0.26	2.65 ± 0.37
TPNASSPGNPTALANGTVQAPKQK [LPCAT4]	5.31 ± 0.13	5.43 ± 0.15
ILENSSQKENVFKCDSLKEECIPE [FAN1]	4.68 ± 0.37	4.95 ± 0.09
VAAVLEAVAQTAHLPADSEVTLEA [RSAD1]	3.8 ± 0.17	3.94 ± 0.37
QEKKRKFLESTDSFNNELKRLCGL [SMARCE1]	2.87 ± 0.41	3.14 ± 0.69
EELRQEWEAKQEKIKSEEIEITFS [FAM50A]	4.98 ± 0.11	4.95 ± 0.35
TSSNLGSQYQCENGVSGPSQDLLP [TBX5]	4.78 ± 0.16	4.6 ± 0.15
PTESEPVTINIQDLLSCSNFAVQH [MATN2]	3.56 ± 0.5	3.37 ± 0.43
IFCEEHFPVAEQDKLLKHMIIEHK [ZNF277]	2.75 ± 0.23	3.01 ± 0.4
DVLKYSYVRLVCKDVRAPSRPAVG [ZSWIM9]	2.25 ± 0.26	1.83 ± 0.22
LAVRGSRRERELERRELAVEQGER [ZBED3]	5.05 ± 0.2	5.07 ± 0.18
KAKFCSTVANDVMLRTGLGVIRMW [NETO1]	2.7 ± 0.51	2.27 ± 0.29
LVLKVLWNDFLMCYSSRPLLCWSV [SLC19A2]	3.19 ± 0.48	3.45 ± 0.53

Reference: the supplement of paper PMC10567573
